Test results published in US6495314 (Scripps Research, dated 2002).
Positions count from the first letter of the chain named. Names and notes keep the numbering of the source. No end group written: not given here.

T1: Ac-CWAcp-PPPALPPKKR.amide, C3G-derived peptide designed for attachment to an affinity column (N-terminal acetyl; ε-aminocaproic acid (Acp, B) at position 3; C-terminal amide; on the column the Cys side chain is coupled to iodoacetyl agarose (Sulfolink))
T1 construct: also called Acetyl-CWAcp-C3G; Ac-CWBPPPALPPKKR.amide
T1 peptide: CWPPPALPPKKR

B1: c-Crk N-terminal SH3 domain (134-191) analogue, I^161R^162 replaced by Gly-[COS]-βAla (other)
chain: AEYVRALFDFNGNDEEDLPFKKGDILRGXDKPEEQWWNAEDSEGKRGMIPVPYVEKYR
modifications: not fully specified; Gly-[COS]-βAla unit (-NH-CH2-CO-S-CH2-CH2-CO-) in place of I161-R162; backbone thioester
notes: Positions count on murine c-Crk; X = -S-CH2CH2-CO- unit; also called IR; Gly-SβAla analogue
B2: c-Crk N-terminal SH3 domain (134-191) analogue, R^162D^163 replaced by Gly-[COS]-βAla (other)
chain: B1 chain with G28I, X29G, D30X
modifications: not fully specified; Gly-[COS]-βAla unit (-NH-CH2-CO-S-CH2-CH2-CO-) in place of R162-D163; backbone thioester
notes: Positions count on murine c-Crk; X = -S-CH2CH2-CO- unit; also called RD; Gly-SβAla analogue
B3: c-Crk N-terminal SH3 domain (134-191) analogue, dipeptide GD (156-157) replaced by Gly-[COS]-βAla (other)
chain: B1 chain with D24X, G28I, X29R
modifications: not fully specified; Gly-[COS]-βAla unit (-NH-CH2-CO-S-CH2-CH2-CO-) in place of G156-D157; backbone thioester
notes: G156 stays Gly; Positions count on murine c-Crk; X = -S-CH2CH2-CO- unit; also called Gly-SβAla analogue
B4: c-Crk N-terminal SH3 domain (134-191) analogue, dipeptide DI (157-158) replaced by Gly-[COS]-βAla (other)
chain: B1 chain with D24G, I25X, G28I, X29R
modifications: not fully specified; Gly-[COS]-βAla unit (-NH-CH2-CO-S-CH2-CH2-CO-) in place of D157-I158; backbone thioester
notes: Positions count on murine c-Crk; X = -S-CH2CH2-CO- unit; also called Gly-SβAla analogue
B5: c-Crk N-terminal SH3 domain (134-191) analogue, dipeptide IL (158-159) replaced by Gly-[COS]-βAla (other)
chain: B1 chain with I25G, L26X, G28I, X29R
modifications: not fully specified; Gly-[COS]-βAla unit (-NH-CH2-CO-S-CH2-CH2-CO-) in place of I158-L159; backbone thioester
notes: as for B4
B6: c-Crk N-terminal SH3 domain (134-191) analogue, dipeptide RI (160-161) replaced by Gly-[COS]-βAla (other)
chain: B1 chain with R27G, G28X, X29R
modifications: not fully specified; Gly-[COS]-βAla unit (-NH-CH2-CO-S-CH2-CH2-CO-) in place of R160-I161; backbone thioester
notes: as for B4
B7: c-Crk N-terminal SH3 domain (134-191) analogue, K^164P^165 replaced by Gly-[COS]-βAla (other)
chain: B1 chain with G28I, X29R, K31G, P32X
modifications: not fully specified; Gly-[COS]-βAla unit (-NH-CH2-CO-S-CH2-CH2-CO-) in place of K164-P165; backbone thioester
notes: Positions count on murine c-Crk; X = -S-CH2CH2-CO- unit; also called KP; Gly-SβAla analogue
B8: c-Crk N-terminal SH3 domain (134-191) analogue, D^163K^164 replaced by Gly-[COS]-βAla (other)
chain: B1 chain with G28I, X29R, D30G, K31X
modifications: not fully specified; Gly-[COS]-βAla unit (-NH-CH2-CO-S-CH2-CH2-CO-) in place of D163-K164; backbone thioester
notes: Positions count on murine c-Crk; X = -S-CH2CH2-CO- unit; also called DK; Gly-SβAla analogue
B9: c-Crk N-terminal SH3 domain (134-191) analogue, dipeptide LR (159-160) replaced by Gly-[COS]-βAla (other)
chain: B1 chain with L26G, R27X, G28I, X29R
modifications: not fully specified; Gly-[COS]-βAla unit (-NH-CH2-CO-S-CH2-CH2-CO-) in place of L159-R160; backbone thioester
notes: as for B4
B10: control peptide Ac-CAcpYGGFL.amide (YGGFL = leucine enkephalin) (peptide)
peptide: Ac-CYGGFL-NH2
modifications: not fully specified (residue 1); also: Cys side chain coupled to Sulfolink agarose
notes: also called Ac-CBYGGFL.amide; Leucine-Enkephalin agarose column
B11: c-Crk N-terminal SH3 domain (134-191) analogue, dipeptide DK (163-164) replaced by Gly-[COS]-Gly (other)
chain: B1 chain with G28I, X29R, D30G, K31G
modifications: not fully specified; Gly-[COS]-Gly unit (-NHCH2CO-SCH2CO-) in place of D163-K164; backbone thioester (S in place of the NH of residue 164)
notes: Member of the nine-member Gly-[COS]-Gly array over cCrk(156-165); Positions count on murine c-Crk; also called DK (Gly-[COS]-Gly array)
B12: c-Crk N-terminal SH3 domain (134-191) analogue, dipeptide IL (158-159) replaced by Gly-[COS]-Gly (other)
chain: B1 chain with I25G, L26G, G28I, X29R
modifications: not fully specified; Gly-[COS]-Gly unit (-NHCH2CO-SCH2CO-) in place of I158-L159; backbone thioester (S in place of the NH of residue 159)
notes: Member of the nine-member Gly-[COS]-Gly array over cCrk(156-165); Positions count on murine c-Crk; also called IL (Gly-[COS]-Gly array)
B13: c-Crk N-terminal SH3 domain (134-191) analogue, dipeptide GD (156-157) replaced by Gly-[COS]-Gly (other)
chain: B1 chain with D24G, G28I, X29R
modifications: not fully specified; Gly-[COS]-Gly unit (-NHCH2CO-SCH2CO-) in place of G156-D157; backbone thioester (S in place of the NH of residue 157)
notes: Member of the nine-member Gly-[COS]-Gly array over cCrk(156-165); G156 stays Gly; Positions count on murine c-Crk; also called GD (Gly-[COS]-Gly array)
B14: c-Crk N-terminal SH3 domain (134-191) analogue, dipeptide IR (161-162) replaced by Gly-[COS]-Gly (other)
chain: B1 chain with X29G
modifications: not fully specified; Gly-[COS]-Gly unit (-NHCH2CO-SCH2CO-) in place of I161-R162; backbone thioester (S in place of the NH of residue 162)
notes: Member of the nine-member Gly-[COS]-Gly array over cCrk(156-165); Positions count on murine c-Crk; also called IR (Gly-[COS]-Gly array)

What follows are binders tested against T2, synthetic murine cCrk N-terminal SH3 domain (residues 134-191) (murine, UniProt Q64010 134-191) (assay: in solution; method not stated in the legend).
T2 construct: Made by total chemical synthesis and folded in HEPES/NaCl buffer; also called cCrk(134-191); c-Crk SH3
Protocol: (§1) The resulting synthetic protein domain was then assayed for its affinity for two different proline-rich peptides. […] This change in solvent exposure leads to an increase in the fluorescence intensity of the tryptophan sidechain which can be monitored as a function of increasing ligand concentration (Feng et al. *Science* 1994.266, 1241–1245).
(§2) 1994, 3, 1261–1266. The purified and lyophilized 58 residue polypeptide chain (0.2 mg) was folded by dissolving in 0.6 mL of 20 mM Hepes, 60 mM NaCl, pH 7.3 to produce a folded protein solution (~50 μM).
Target sequence in this assay (Q64010 134-191 limits assumed): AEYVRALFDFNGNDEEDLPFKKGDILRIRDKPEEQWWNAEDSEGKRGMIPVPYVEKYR
A Kd of 2.3 µM was found for PPPALPPKKR-NH2 (also called C3G peptide) [C3G-derived peptide PPPALPPKKR.amide] in this work.

Molecular target: B10
Assay: nine-member array on control peptide column, A280
Protocol: (§3) The column was then washed with 0.5 M NaCl buffer to remove nonspecific binding proteins from the column. Specifically bound protein analogues were then eluted with 1 M hydroxylamine bufffer. Amounts of eluted peptide were monitored by UV absorbance at 280 nm. This procedure was used for both the C3G peptide column and for the control column loaded with Ac-C-AcpYGGFL.amide.
(§4) Affinity chromatography of the arrays of protein analogues was carried out as follows. […] After incubation at room temperature for a period of 6–8 hours the column was washed with 0.5 M NaCl in 0.1 M sodium phosphate, pH 7.0 buffer (6×1 mL) to remove any non-specifically bound proteins. The first two 1 mL fractions were collected and immediately mixed with an equal volume of 1 M NH_2OH, 20 mM NH_4HCO_3, pH 5.5 buffer to cleave any thioester-containing protein analogues. […] Samples of the eluted fractions were monitored by UV absorbance at 280 nm. This procedure was used for both the C3G peptide column and for the control column loaded with Ac-C-Acp-YGGFL.amide. To accommodate MALDI analysis, both the 0.5M NaCl wash and 1 M NH_2OH fractions were desalted on a low pressure, disposable C-18 column, washed with HPLC buffer A and peptide fragments eluted with 1.5 mL 60% acetonitrile in water, 0.1% TFA.
B1: no binding.
B2: no binding.
B3: no binding.
B4: no binding.
B5: no binding.
B6: no binding.
B7: no binding.
B8: no binding.
B9: no binding.

These binders were tested against T2, synthetic murine cCrk N-terminal SH3 … (assay: control peptide affinity column).
B10: no binding.

Molecular target: T1, Ac-CWAcp-PPPALPPKKR.amide, C3G-derived …
Assay: Gly-[COS]-Gly array on C3G peptide affinity column, MALDI MS readout (FIG. 27A)
B11: binds.
B12: binds.
B13: binds.
B14: binds.

Molecular target: T1, Ac-CWAcp-PPPALPPKKR.amide, C3G-derived …
Assay: 19-member array on C3G peptide affinity column, MALDI MS readout
B1: binds.
B2: binds.
B4: no binding.
B5: no binding.
B6: no binding.
B7: binds.
B8: binds.
B9: no binding.

These binders were tested against T2, synthetic murine cCrk N-terminal SH3 … (assay: tryptophan fluorescence titration in solution, 12 hours incubation).
Protocol: as §1, §2
A Kd of 1.8 µM was found for PPPALPPKKR-NH2 (also called C3G peptide) [C3G-derived peptide PPPALPPKKR.amide] in this work.

Molecular target: T1, Ac-CWAcp-PPPALPPKKR.amide, C3G-derived …
Assay: Example 2: nine-member array on C3G peptide affinity column, MALDI MS readout
Protocol: as §3, §4
B3: no binding.
